Experimental data: US20250163162A1

Legend:
[1] = target: T1, IL10Rα and IL2Rγ on human primary cells (CD8 T cells, CD4 T cells, monocytes) (human) (UniProt Q13651); test: cell-based or functional assay
T1 sequence (looked up) 1: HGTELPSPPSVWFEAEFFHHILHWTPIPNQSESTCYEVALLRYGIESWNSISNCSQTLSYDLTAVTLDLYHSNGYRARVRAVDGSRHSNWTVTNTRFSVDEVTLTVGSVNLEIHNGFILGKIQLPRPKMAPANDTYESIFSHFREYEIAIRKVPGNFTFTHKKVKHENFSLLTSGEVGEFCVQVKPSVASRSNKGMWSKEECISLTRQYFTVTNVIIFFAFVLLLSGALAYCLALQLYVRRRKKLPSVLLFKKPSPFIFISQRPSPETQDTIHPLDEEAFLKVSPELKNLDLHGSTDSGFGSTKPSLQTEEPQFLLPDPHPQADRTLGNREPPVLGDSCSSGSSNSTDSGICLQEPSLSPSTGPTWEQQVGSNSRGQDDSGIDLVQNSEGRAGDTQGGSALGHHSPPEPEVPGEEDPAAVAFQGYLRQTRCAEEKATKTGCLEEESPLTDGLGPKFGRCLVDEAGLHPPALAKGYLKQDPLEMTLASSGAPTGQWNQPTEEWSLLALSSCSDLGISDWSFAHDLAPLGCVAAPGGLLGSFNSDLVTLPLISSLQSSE
T1 sequence (looked up) 2: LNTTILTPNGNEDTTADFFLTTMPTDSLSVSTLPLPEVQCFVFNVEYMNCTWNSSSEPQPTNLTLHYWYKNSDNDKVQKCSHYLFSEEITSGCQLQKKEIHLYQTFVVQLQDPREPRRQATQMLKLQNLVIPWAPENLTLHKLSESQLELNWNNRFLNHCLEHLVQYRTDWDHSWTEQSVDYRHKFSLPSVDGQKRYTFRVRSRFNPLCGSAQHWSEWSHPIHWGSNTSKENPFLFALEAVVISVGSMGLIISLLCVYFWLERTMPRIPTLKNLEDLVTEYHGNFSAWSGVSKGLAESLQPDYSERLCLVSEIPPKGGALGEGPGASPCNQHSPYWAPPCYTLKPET

[2] = target: T2, IL10Rα/IL2Rγ receptor (human) (UniProt Q13651); test: cell-based or functional assay
T2 sequence (looked up) 1: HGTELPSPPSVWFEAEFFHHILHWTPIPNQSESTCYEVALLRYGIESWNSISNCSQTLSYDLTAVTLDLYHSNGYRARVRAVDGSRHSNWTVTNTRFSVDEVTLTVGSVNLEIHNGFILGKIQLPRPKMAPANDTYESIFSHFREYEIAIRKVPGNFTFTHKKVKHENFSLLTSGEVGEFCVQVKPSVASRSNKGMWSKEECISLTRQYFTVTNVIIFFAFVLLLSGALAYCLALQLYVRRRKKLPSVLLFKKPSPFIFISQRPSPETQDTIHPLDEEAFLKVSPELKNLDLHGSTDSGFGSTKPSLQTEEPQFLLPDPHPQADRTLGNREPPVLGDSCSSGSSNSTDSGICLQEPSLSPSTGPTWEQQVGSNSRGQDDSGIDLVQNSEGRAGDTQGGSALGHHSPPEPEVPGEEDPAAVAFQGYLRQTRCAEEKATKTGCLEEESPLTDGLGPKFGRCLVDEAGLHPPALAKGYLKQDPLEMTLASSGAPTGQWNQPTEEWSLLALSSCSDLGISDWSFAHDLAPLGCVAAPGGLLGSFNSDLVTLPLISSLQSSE
T2 sequence (looked up) 2: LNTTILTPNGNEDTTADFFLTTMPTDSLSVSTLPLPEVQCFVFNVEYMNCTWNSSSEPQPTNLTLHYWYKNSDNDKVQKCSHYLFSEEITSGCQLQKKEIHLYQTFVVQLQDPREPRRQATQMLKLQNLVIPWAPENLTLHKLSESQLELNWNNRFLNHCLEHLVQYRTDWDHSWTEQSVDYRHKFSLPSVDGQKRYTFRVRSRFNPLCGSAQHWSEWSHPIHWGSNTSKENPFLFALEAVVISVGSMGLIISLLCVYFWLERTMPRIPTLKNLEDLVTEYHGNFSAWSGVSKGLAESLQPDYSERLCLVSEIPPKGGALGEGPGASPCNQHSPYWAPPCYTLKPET

B1: hIL10Ra_VHH14-hIL2Rg_VHH19, linker GGGS, tag Fc (Fc fusion, not shown: a dimerising Fc or GST)
chain: QVQLQESGGGSVQAGGSLRLSCGASGYTYSSYCMGWFRQVPGKEREGVAVIDSDGSTSYADSVKGRFTISKDNGKNTLYLQMNSLKPEDTAMYYCAADLGHYRPPCGVLYLGMDYWGKGTQVTVSSGGGSQVQLQESGGGSVQAGGSLRLSCTASGFTFDDREMNWYRQAPGNECELVSTISSDGSTYYADSVKGRFTISQDNAKNTVYLQMDSVKPEDTAVYYCAADFMIAIQAPGAGCWGQGTQVTVSS
pSTAT3 (MFI) in CD4 T cells at 0.0001 µM [1]: 12600 MFI
pSTAT3 (MFI) in CD4 T cells at 0.001 µM [1]: 12600 MFI
pSTAT3 (MFI) in CD4 T cells at 0.01 µM [1]: 12500 MFI
pSTAT3 (MFI) in CD4 T cells at 0.1 µM [1]: 11300 MFI
pSTAT3 (MFI) in CD4 T cells at 1 µM [1]: 13600 MFI
pSTAT3 (MFI) in CD4 T cells at 10 µM [1]: 14800 MFI
pSTAT3 (MFI) in CD4 T cells at 100 µM [1]: 16000 MFI
pSTAT3 (MFI) in CD8 T cells at 0.0001 µM [1]: 7540 MFI
pSTAT3 (MFI) in CD8 T cells at 0.001 µM [1]: 7890 MFI
pSTAT3 (MFI) in CD8 T cells at 0.01 µM [1]: 7800 MFI
pSTAT3 (MFI) in CD8 T cells at 0.1 µM [1]: 7330 MFI
pSTAT3 (MFI) in CD8 T cells at 1 µM [1]: 9320 MFI
pSTAT3 (MFI) in CD8 T cells at 10 µM [1]: 12300 MFI
pSTAT3 (MFI) in CD8 T cells at 100 µM [1]: 13200 MFI
pSTAT3 (MFI) in monocytes at 0.0001 µM [1]: 4370 MFI
pSTAT3 (MFI) in monocytes at 0.001 µM [1]: 4740 MFI
pSTAT3 (MFI) in monocytes at 0.01 µM [1]: 4420 MFI
pSTAT3 (MFI) in monocytes at 0.1 µM [1]: 4810 MFI
pSTAT3 (MFI) in monocytes at 1 µM [1]: 5690 MFI
pSTAT3 (MFI) in monocytes at 10 µM [1]: 6690 MFI
pSTAT3 (MFI) in monocytes at 100 µM [1]: 6030 MFI

B2: hIL10Ra_VHH14 - hIL2Rg_VHH19, linker GGSGGS, tag his (bispecific antibody, not shown: small tags and cut ends)
chain: QVQLQESGGGSVQAGGSLRLSCGASGYTYSSYCMGWFRQVPGKEREGVAVIDSDGSTSYADSVKGRFTISKDNGKNTLYLQMNSLKPEDTAMYYCAADLGHYRPPCGVLYLGMDYWGKGTQVTVSSGGSGGSQVQLQESGGGSVQAGGSLRLSCTASGFTFDDREMNWYRQAPGNECELVSTISSDGSTYYADSVKGRFTISQDNAKNTVYLQMDSVKPEDTAVYYCAADFMIAIQAPGAGCWGQGTQVTVSS
Granzyme A secretion, CD8 T cells, at 0 µM [2]: 25200 pg/mL
Granzyme A secretion, CD8 T cells, at 0.0001 µM [2]: 20800 pg/mL
Granzyme A secretion, CD8 T cells, at 0.001 µM [2]: 23000 pg/mL
Granzyme A secretion, CD8 T cells, at 0.01 µM [2]: 25300 pg/mL
Granzyme A secretion, CD8 T cells, at 0.1 µM [2]: 27100 pg/mL
Granzyme A secretion, CD8 T cells, at 1 µM [2]: 28700 pg/mL
Granzyme A secretion, CD8 T cells, at 10 µM [2]: 29400 pg/mL
Granzyme A secretion, CD8 T cells, at 100 µM [2]: 25600 pg/mL
Granzyme B secretion, CD8 T cells, at 0 µM [2]: 77700 pg/mL
Granzyme B secretion, CD8 T cells, at 0.0001 µM [2]: 54500 pg/mL
Granzyme B secretion, CD8 T cells, at 0.001 µM [2]: 50900 pg/mL
Granzyme B secretion, CD8 T cells, at 0.01 µM [2]: 54100 pg/mL
Granzyme B secretion, CD8 T cells, at 0.1 µM [2]: 62300 pg/mL
Granzyme B secretion, CD8 T cells, at 1 µM [2]: 77600 pg/mL
Granzyme B secretion, CD8 T cells, at 10 µM [2]: 90000 pg/mL
Granzyme B secretion, CD8 T cells, at 100 µM [2]: 77900 pg/mL
IFNγ secretion, CD8 T cells, at 0 µM [2]: 122000 pg/mL
IFNγ secretion, CD8 T cells, at 0.0001 µM [2]: 94700 pg/mL
IFNγ secretion, CD8 T cells, at 0.001 µM [2]: 110000 pg/mL
IFNγ secretion, CD8 T cells, at 0.01 µM [2]: 117000 pg/mL
IFNγ secretion, CD8 T cells, at 0.1 µM [2]: 122000 pg/mL
IFNγ secretion, CD8 T cells, at 1 µM [2]: 144000 pg/mL
IFNγ secretion, CD8 T cells, at 10 µM [2]: 149000 pg/mL
IFNγ secretion, CD8 T cells, at 100 µM [2]: 127000 pg/mL
IL-1β secretion, LPS treated monocytes, at 0 µM [2]: 6240 pg/mL
IL-1β secretion, LPS treated monocytes, at 0 µM (LPS only) [2]: 6880 pg/mL
IL-1β secretion, LPS treated monocytes, at 0.0001 µM [2]: 6290 pg/mL
IL-1β secretion, LPS treated monocytes, at 0.001 µM [2]: 5850 pg/mL
IL-1β secretion, LPS treated monocytes, at 0.01 µM [2]: 6100 pg/mL
IL-1β secretion, LPS treated monocytes, at 0.1 µM [2]: 4960 pg/mL
IL-1β secretion, LPS treated monocytes, at 1 µM [2]: 5780 pg/mL
IL-1β secretion, LPS treated monocytes, at 10 µM [2]: 6420 pg/mL
IL-1β secretion, LPS treated monocytes, at 100 µM [2]: 7840 pg/mL
IL-9 secretion, CD8 T cells, at 0 µM [2]: 1350 pg/mL
IL-9 secretion, CD8 T cells, at 0.0001 µM [2]: 951 pg/mL
IL-9 secretion, CD8 T cells, at 0.001 µM [2]: 1010 pg/mL
IL-9 secretion, CD8 T cells, at 0.01 µM [2]: 1140 pg/mL
IL-9 secretion, CD8 T cells, at 0.1 µM [2]: 1090 pg/mL
IL-9 secretion, CD8 T cells, at 1 µM [2]: 1440 pg/mL
IL-9 secretion, CD8 T cells, at 10 µM [2]: 1600 pg/mL
IL-9 secretion, CD8 T cells, at 100 µM [2]: 1700 pg/mL
